Earlier results, collected in paper PMC1775043.
pKd: −log10 of the molar value.

Target: hnRNP A2 (Homo sapiens) (UniProt P22626)
Test: FCS

For hnRNP A2 (from UniProt P22626), the pKd is listed as 10.00.
